{"source": "a protein production outcome set (Wang et al. 2014)", "assay": "label from the status in PepcDB records", "data": [{"sequence": "MANKNPLQKPFLFIILSINLIFLQAETTTQISTKKTYVIHMDKSAMPLPYTNHLQWYSSKINSVTQHKSQEEEGNNNRILYTYQTAFHGLAAQLTQEEAERLEEEDGVVAVIPETRYELHTTRSPTFLGLERQESERVWAERVTDHDVVVGVLDTGIWPESESFNDTGMSPVPATWRGACETGKRFLKRNCNRKIVGARVFYRGYEAATGKIDEELEYKSPRDRDGHGTHTAATVAGSPVKGANLFGFAYGTARGMAQKARVAAYKVCWVGGCFSSDILSAVDQAVADGVQVLSISLGGGVSTYSRDSLSIATFGAMEMGVFVSCSAGNGGPDPISLTNVSPWITTVGASTMDRDFPATVKIGTMRTFKGVSLYKGRTVLPKNKQYPLVYLGRNASSPDPTSFCLDGALDRRHVAGKIVICDRGVTPRVQKGQVVKRAGGIGMVLTNTATNGEELVADSHMLPAVAVGEKEGKLIKQYAMTSKKATASLEILGTRIGIKPSPVVAAFSSRGPNFLSLEILKPDLLAPGVNILAAWTGDMAPSSLSSDPRRVKFNILSGTSMSCPHVSGVAALIKSRHPDWSPAAIKSALMTTAYVHDNMFKPLTDASGAAPSSPYDHGAGHIDPLRATDPGLVYDIGPQEYFEFLCTQDLSPSQLKVFTKHSNRTCKHTLAKNPGNLNYPAISALFPENTHVKAMTLRRTVTNVGPHISSYKVSVSPFKGASVTVQPKTLNFTSKHQKLSYTVTFRTRFRMKRPEFGGLVWKSTTHKVRSPVIITWLPPL", "values": [{"measurement": "protein production", "result": "failed"}]}, {"sequence": "MQYRIRRENEAPEAKNAGETLWERDIMREVLLSAYRDRRRERMWKNIWRAVSTLILVALIAGIFRKDEAALQLAGNTPHTAVVNLYGKIGNGVEDQVKKLKDGMEAAYKNPQAKAIVIRANSPGGSPVVSNTAFEEIRRLKAQHPGIPVYLVAEDMCASGCYYIAAAADKIYADPSSIVGSIGVIGSSFDATGLMEKIGVKRRVKIAGSNKGMGDPFSPETPEQSKIWEEMLTGIHGEFIKAVKTGRGGRLKFRQYPDVFSGRVYTGADALKVGLVDGLGNIYSVARDVVKAPDVVDYTPKDDFGRILGRRFGAELKASVSEALQAVRLEHHHHHH", "values": [{"measurement": "protein production", "result": "not failed"}]}, {"sequence": "MYRMDKYTIGLIRVITLEDKEILNLHGRIIESAFPELKVVSRCIEDQPKGIYNEETEREAEPKIIRLAKEFEREGVDAIIISCAADPAVEKVRKLLSIPVIGAGSSVSALALAYGRRVGVLNLTEETPKVIRSILGNNLIAEDHPSGVSNTLDLLTDWGRREVINAAKRLKEKGVEVIALGCTGMSTIGIAPVLEEEVGIPVIDPVIASGAVALHALKRREVKRFEGR", "values": [{"measurement": "protein production", "result": "not failed"}]}, {"sequence": "MNTTVEKQQIITSNTEQWKMYSKLEGKEYQIHISKPKQPAPDSGYPVIYVLDGNAFFQTFHEAVKIQSVRAEKTGVSPAIIVGVGYPIEGAFSGEERCYDFTPSVISKDAPLKPDGKPWPKTGGAHNFFTFIEEELKPQIEKNFEIDKGKQTLFGHSLGGLFALHILFTNLNAFQNYFISSPSIWWNNKSVLEKEENLIIELNNAKFETGVFLTVGSLEREHMVVGANELSERLLQVNHDKLKFKFYEAEGENHASVVPTSLSKGLRFISYV", "values": [{"measurement": "protein production", "result": "not failed"}]}, {"sequence": "MKFRGNFVCQPRAGPAESRPTRPFTPRPSATGSLFMSNQHFVSPDLIRQGFSRAMSDMYREEVPLYGALMELVAEVNAQVLERQPALARHLQSSGELQRLDLERHGAIRVGSAAELATLARLFAVMGMQPVGYYDLTPAGVPVHSTAFRAVHEAALQVSPFRVFTSLLRLELIDNPELRSFAEQVLARRQIFTPQVLELIQQAEAAGGLDAEDAERFIRQALETFRWHHHATVTAAQYASLSAQHRLIADVVAFKGPHINHLTPRTLDIDEVQRLMPARGITPKAVIEGPPRRECPILLRQTSFKALEESVAFTDQAQSQGSHSARFGEIEQRGAALTPKGRELYDRLLNAARDALGDFPNEANAQRYNQLMQEHFREFPDSHPAMREQGLAYFRYFVSETGLAARNQPQRPTTLAALLAAGHLSAEPLVYEDFLPVSAAGIFQSNLGDDSQSHYAGQSNRQAFEAALGRPTLDELQLYAQTQQRSLEHCAATLGLPALLEHHHHHH", "values": [{"measurement": "protein production", "result": "failed"}]}, {"sequence": "MATVAFHTLGCKVNHYETEAIWQLFKEAGYERKEFESSADVYVINTCTVTNTGDKKSRQVIRRAIRQNPDAVICVTGCYAQTSPAEIMAIPGVDIVVGTQDREKMLGYIKQYQEERQPINGVSNIMKARVFEELDVPAFTDRTRASLKIQEGCNNFCTFCIIPWARGLLRSRDPEEVIRQAQQLVDAGYKEIVLTGIHTGGYGEDMKDYNFAQLLKELDSRVKGLKRIRISSIEASQITDEVIEVLDRSDKIVRHLHIPLQSGSNSVLKRMRRKYTMEFFADRLTKLKKALPGLAVTSDVIVGFPGETEEEFMETYNFIKEHKFSELHVFPYSKRTGTPAARMDGQVDENVKNERVHKLIALSDQLAKEYASDYEGDVLEIIPEEPFTETGEGNLLVGYTDNYIKVVFEGSEDLIGQLVKVKILKAGYPYNKGQFVRVAEDDVRENIRLSS", "values": [{"measurement": "protein production", "result": "failed"}]}, {"sequence": "MLTNSINYSELSDVAAFVCVVQTGSFTAAAEQLNTSKSVISKYITRLEKRLGVKLLARTTRRLTLTEIGRTFYEGSRQGLEAIDNAEEAVSFLQGKPRGTLKINAPLSFGALHIAPALEEFIHRYPEMQIDLRFDDKKIDMIKDGFDLTVRITHQLEGNLIARRIAPCHHALVAAPNYLAKRGTPKRPEDLVAHNVITYQYQQSPWEWEFTAAKSKPKRVRVNGSVQMNNSLAIREAVLAGVGISRMPTFAVGEDIKSGRLIQLLPKYSLLEHSIYLVFPERNHMAPKTRAFIDYMVKIMEGKPSWDRF", "values": [{"measurement": "protein production", "result": "failed"}]}, {"sequence": "MSLRPRVLLVEDSTSLAILYKQYVKDEPYDIFHVETGRDAIQFIERSKPQLIILDLKLPDMSGEDVLDWINQNDIPTSVIIATAHGSVDLAVNLIQKGAEDFLEKPINADRLKTSVALHLKRAKLEDLVEGHHHHHH", "values": [{"measurement": "protein production", "result": "not failed"}]}, {"sequence": "MTITSKLKKRRSLSTLITKIIILVLAPIILGIFVQSYYFSKQIIWQEVDRTKQQTSALILNIFESHFAAIQIHHDSNSKSDVILDFYSERNEEALNYFFLSIDQSDPSHTPEFRFLTDHQGIIWDDGNAHFYGINDSMLDGLTSKVTFSNNWYYVTSITSMGARHLLLRRVPVLEPKTGEVMGYSYNAVVLDNNFALMEKLKNEGNVDNVVLVANDIPVASSLAGDESYKIFDVLKRKETQKKLDQLLIIQTPIEVNAAITNLKLLTVQDNQSVVTLQIQHFLAMLASVIGMIMIALMTKEWIENRVVEELGSLMSYTRSAREEKGFERFGGSDIEEFDHIGSTLESTFEELEAQKRSFRDLFNFALSPIMVWSEAGVLIQINPAARKELVIENDIETMHPVFKGFKDKLVPHLRMAAQGATLTGVNVPIGDKVFRWNLSPIRVDGDISGIIVQGQDITTLIEAEKQSNLARREAEKSAQARADFLAKMSHEIRTPINGILGVAQLLKDSVEAEEQKNQIDVLRHSGEHLLAVLNDILDFSKIEQGKFNIQKHPFSFADTMRTLENIYRPICENKGVELVIENQLDGNVEIFTDQVRLNQILFNLVSNAVKFTPSGCVRLHAELEQFYGADNSVLVVEISDTGIGIESDKLDEMFEPFVQEEATTTREYGGSGLGLTIVKNLVDMLDGDVQVRSQKGQGTTFVVTLPVKDRERVLAPLDSSQRVKPAELFDESLKVLLVEDNHTNAFILKAFCTKYKMQVDWAKDGLEAMEFLKDHSYDLILMDNQLPHLGGIETTKEIRQNLKLGTPIYACTADTAQETSDAFMEAGANYVLLKPIKENALHEAFVDFKQRFLIERT", "values": [{"measurement": "protein production", "result": "failed"}]}, {"sequence": "MGKTKRYWLLKTEPNEWSWSDQESNGGISKWDGVKNKQAQKNLKSMTLGDLCFFYHSGTKSRCVVGVVEVSREWYTDDAEGVEGEGAVDVKAIGEMRKCVDLKEMKGDKGIITKGFVLFRQPRLSVVPVEEDVWNMICELGNGFCGDGKEDCESSDDE", "values": [{"measurement": "protein production", "result": "failed"}]}, {"sequence": "STTEEESLSAAEEGYNVQRDYWRQAEESDGFDIENIKLPPGMHGRVMGLITYNCQLCYRYPFPVLVKLYAKFGLHRYNLIKGTSFELAALMKFNMLQNYMSSFYMTLLAHDPDPAASSSQKTFQVRVDEQQFGTLGINCSIARPKHEGDLLEVSTKTPFIPHFHGGALGDGIFKGELPDCLSDDALNALMEAVSKDELPEHVLDDALYARAGGIFQGELPDWPSDDALNDGKRFYMLKESEWQATDWISMYLELVITTTDRSITEPEVLSKLEIVKVAIETATKDEEPSNERLKAYRAHFYITFKGLAEPRAPRQVFEIGEHVERQAIVRRVMGHRGDLTLKGKLCGGQYIKRRSLALKSGEESPNCKKQTRVG", "values": [{"measurement": "protein production", "result": "failed"}]}, {"sequence": "MTYKDYTGLDRTELLSKVRHMMSDKRFNHVLGVERAAIELAERYGYDKEKAGLAALLHDYAKELSDDEFLRLIDKYQPDPDLKKWGNNIWHGLVGIYKIQEDLAIKDQDILAAIAKHTVGSAQMSTLDKIVYVADYIEHNRDFPGVEEARELAKVDLNKAVAYETARTVAFLASKAQPIYPKTIETYNAYIPYLD", "values": [{"measurement": "protein production", "result": "not failed"}]}, {"sequence": "MISVAHSPDADDIFMYYAIKFGWIDCPIKNKAFHNIALDIETLNQEALKNTYDVSAISFGLYPKIANDYALLPTATSFGNGYGPKLVKKKGVKLKKDFRVALSGEHTTNALLFKIYYKHARITYMNFLDIEKAVLEEKVHAGVLIHESILDFHNELEVEKELWDVWKELIEVDLPLPLGGMAIRRSIPLYRAILIKKALIKAVEVALKHQNLLSGMLLERSLIRVNKERLRTYLSLYANETSTRLSEIQILAIDKLFELGYQHGFYASLLKTKDCLLTDEYLKYRFS", "values": [{"measurement": "protein production", "result": "failed"}]}, {"sequence": "MSLSQDGLLGEVLSEGVLTLTLGRAPAHPLSRAMIAALHDALRRAMGDDHVHVLVIHGPGRIFCAGHDLKEIGRHRADPDEGRAFVTDLFEACSALMLDLAHCPKPTIALVEGIATAAGLQLMAACDLAYASPAARFCLPGVQNGGFCTTPAVAVSRVIGRRAVTEMALTGATYDADWALAAGLINRILPEAALATHVADLAGALAARNQAPLRRGLETLNRHLELPLEQAYALATPVMVEHFMDPGRRHLDWIDEGHHHHHH", "values": [{"measurement": "protein production", "result": "not failed"}]}, {"sequence": "MEISCLLNEIKASIRYENQIVHIEETPARDACYAPLELEVRIKAALSGTGIEALYSHQAEAIEKVREGKDLVLCTSTASGKSLTYMIPVFEAVLKDPEATSLYISPLNALVNDQLKAFLEFEGALNSGAGIARYTGALSADQKRKIRDGKTNIVFTNPEMVHMSFLAWHHLWRRFFSNLRFIVVDESHYYRGVIGSNMANVLRRLLRVAEYYGASPQFICCSATIGNPEDHTETLLGREAVVVENNGSLQGPQKFVFWNPPLYMNGRGCTVRRSSFSEASALFTRAVQAGLQTLAFTRSRQGVERMYRTCMELLRDRELPSAICPYRSGYFDREREEIERKMNSGELRGVISTNALELGIDIGGLDVCILDGYPGTVMSARQQAGRAGRSGNESLVLMVAGTNALDQYYMRNPADFFARSSENAVLNPKNPYILAGHLLCAAKEIPLRESDEKYFGGGYSRVVELLEAEGLLAGSDMKYSTDPFPYKQVSLRGIDNNTYSLLAFEGERSFPIEKDIEETLAFRECHPGAVYIHRGESFYINRIDHEKREIHAIKTHDSYYTKPMIDSSVVVQETYAAKPLLHAPEVEVGLGEVEVTDRIAGYRKIRTHSDETMSAHEIEMPPITLQTVALWLKLPDRLQEMIGDHKLDFAGGIHAVEHAIISMYPLHLLVDRSDVGGVSTPSHPDLGSKSGIFIYDGHRGGVGYAEKGYDLIEEVLEGTLKAIESCPCESGCPGCIQSPKCGNNNEPLDKHAAIMLLHELLGKAPYIPPEKKEKHLSEARARKTIPQERKSSGDALDRVRRQLRRENINQEPQAGKEKKEKTFIATDENGGMIGVVSAPTPEKAAAKTFHKKLAGQQGATKEKPLEIRIRDLGAGSDYHFRAWTELFEAAENGDPESKEKKAVKKLFIRKMS", "values": [{"measurement": "protein production", "result": "failed"}]}, {"sequence": "ALLQTPEFVEEFILDRTMNPAVREFGYEELKMIDPTCGSGHFVLGAFRRLVRLGGENQPGKDVHQRVRAALDSVHGVDINPFAVAIARFRLLVAAMAASGVRTLDEASKYEWPVHLAVGDSLIKSGSQQGSLFGESDDDLTDELAEFKYATEDVGEHPEMLRPGRYHVVVGNPPYITVKDKSLNALYRELYPACAGKYALSVPFAQRFFELAKREDAEGSGYGMVGQITANSFMKREFGTKLIEGYFGHAVELTEVIDTSGAYIPGHGTPTVILVGTRRGGDGR", "values": [{"measurement": "protein production", "result": "failed"}]}]}
